Series [1] addresses T1, GbpC (glucan-binding protein C), extracellular fragment (Streptococcus mutans, UniProt Q8DTF1 111-522).
T1 sequence: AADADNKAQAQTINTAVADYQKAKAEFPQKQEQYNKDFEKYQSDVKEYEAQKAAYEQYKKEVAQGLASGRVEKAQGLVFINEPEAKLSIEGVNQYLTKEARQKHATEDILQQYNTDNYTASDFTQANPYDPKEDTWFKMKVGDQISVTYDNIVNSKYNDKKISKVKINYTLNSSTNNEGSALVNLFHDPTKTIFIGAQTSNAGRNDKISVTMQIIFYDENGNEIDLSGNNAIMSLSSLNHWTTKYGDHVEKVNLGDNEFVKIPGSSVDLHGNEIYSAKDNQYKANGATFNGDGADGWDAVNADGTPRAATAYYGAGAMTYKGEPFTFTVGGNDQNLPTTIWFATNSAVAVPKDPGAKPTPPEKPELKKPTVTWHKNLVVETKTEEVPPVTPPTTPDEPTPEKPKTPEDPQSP
Nature of the series: AlphaScreen. (In general: Alpha assays give light when donor and acceptor beads are brought close together.)

Series [2] deals with T1, GbpC (glucan-binding protein C), …. In words: BLI.
The target is the same in series [3]. Nature of the series: MST.

B1: A30 (ssDNA)
DNA: AGATACCAATACGCTGCCTTCTTGAAAAAGGGTAGCGCAGGCCGCTAATGACATAACTGCCACTGGTAACGACATC
Turning to B1, the binding result in series [1] is “binds”.

B2: A39 (flanked) (ssDNA)
DNA: AGATACCAATACGCTGCCTAGCCCCTACCCTGTTGCTCCCCCTCGCCCCTCTCACCCCGCCACTGGTAACGACATC
As a reminder, the Kd is the constant that tells how readily two partners part at equilibrium. In series [2], B2 yielded a Kd of 5.7 µM.

B3: A65 (ssDNA)
DNA: AGATACCAATACGCTGCCTTTCCAATTACGCCATGCATCACCCCTAAAATCTGAATACGCCACTGGTAACGACATC
Turning to B3, the binding result in series [1] was “binds”.
In series [3], TAGCCCCTACCCTGTTGCTCCCCCTCGCCCCTCTCACCCC (ssDNA) [A39 truncated] showed a Kd of 19.6 µM.
Same read-out and setting: the same measure for CCGCCGGTCCCGAGCTACAACACTTTACGCCCCCCTCCC (ssDNA) [A96 truncated]: 66.9 µM.

B4: A96 (flanked) (ssDNA)
DNA: AGATACCAATACGCTGCCCCGCCGGTCCCGAGCTACAACACTTTACGCCCCCCTCCCCGCCACTGGTAACGACATC
With B4, the Kd was found to be 0.4 µM in series [2] and 8.5 µM in series [3].

The values are drawn from paper doi:10.1101/2024.08.23.608024.
